Data taken from US20210206850A1 (ACCURUS BIOSCIENCES, published 2021).

Legend:
[1] = target: T1, human CD47 (full length) expressed on cells (human, UniProt Q08722 19-323); assay: FACS ligand blocking on CD47-CHO cells; blocked ligand FITC human SIRPa huFc at 5 ug/ml
T1 construct: whole, on cells; also called human CD47/CHO cells; CHO/CD47 cells
Description: The cells were then washed 3 times with the FACS buffer and the mean florescence intensities (MFI) of FITC were evaluated by FACS Caliber.

[2] = target: T2, human CD47ECD His tagged protein (human, UniProt Q08722 19-139, limits assumed); assay: ELISA ligand blocking, plate coated with human CD47 ECD His tagged protein at 1 ug/ml; blocked ligand human SIRPaECD muFc at 1 ug/ml, anti-mouse IgG-HRP
T2 construct: extracellular domain; also called HuCD47ECD 8xHis; monovalent CD47ECD His tagged protein
Description: Briefly, microtiter plates were coated with human CD47ECD His tagged protein at 1 μg/ml in PBS, 100 μl well at 4° C. overnight, then blocked with 100 μl/well of 2% BSA. […] The plates were washed with PBS/Tween and then incubated with anti-mouse IgG-HRP for 1 hour at 37° C. After washing, the plates were developed with TMB substrate and analyzed by spectrophotometer at OD 450 nm.

[3] = target: T3, human CD47ECD mouse Fc protein (human, UniProt Q08722 19-139, limits assumed); assay: SPR (Biacore 3000); antibody captured on anti-human Fc chip, bivalent HuCD47ECD muFc injected
T3 construct: extracellular domain; also called HuCD47ECD muFc; bivalent CD47ECD muFc protein; not shown: mouse Fc
Description: (§1) The binding affinities of anti-human CD47 mouse/human chimeric antibodies to human CD47 protein were determined with BIACORE™ using a capture method. The anti-human CD47 mouse/human chimeric antibodies were captured using anti-human Fc antibody coated on a CMS chip. Serial dilutions of human CD47ECD mouse Fc protein starting from 400 nM were injected over captured antibody for 1 mins at a flow rate of […]. Alternatively, serial dilutions of human CD47ECD His tagged protein starting from 800 nM were injected over captured antibody for 1 min at a flow rate of […]. The antigens were allowed to dissociate for 900s. All the experiments were carried out on a Biacore 3000. Data analysis was carried out using Biacore 3000 evaluation software.

[4] = target: T2, human CD47ECD His tagged protein; assay: SPR (Biacore 3000); antibody captured on anti-human Fc chip, monovalent HuCD47ECD 8xHis injected
Description: as §1

[5] = target: T1, human CD47 (full length) expressed on …; assay: FACS ligand blocking on CD47-CHO cells; blocked ligand FITC human SIRPa huFc at 4 ug/ml
Description: To evaluate the blocking effect of anti-human CD47 mouse/human chimeric antibodies to human full length CD47 expressed on CHO cells, the FACS-based ligand blocking assay was used. CD47-CHO cells were first incubated with 3 fold serially diluted mouse/human chimeric mAbs starting at 100 μg/ml on ice for 30 min. […] The cells were then washed 3 times with the FACS buffer and the mean florescence intensities (MFI) of FITC were evaluated by FACS Caliber. […] AB6.12 is a humanized version of anti-CD47 antibody 2A1 from Celgene and was used as a reference antibody in the assay.

[6] = target: T3, human CD47ECD mouse Fc protein; assay: SPR (Biacore 3000); antibody captured on anti-human Fc chip, bivalent HuCD47ECD muFc injected; column Affinity (nM)
Description: as §1

[7] = target: T2, human CD47ECD His tagged protein; assay: SPR (Biacore 3000); antibody captured on anti-human Fc chip, monovalent HuCD47ECD 8xHis injected; column Affinity (nM)
Description: as §1

T1 sequence (Q08722 19-323): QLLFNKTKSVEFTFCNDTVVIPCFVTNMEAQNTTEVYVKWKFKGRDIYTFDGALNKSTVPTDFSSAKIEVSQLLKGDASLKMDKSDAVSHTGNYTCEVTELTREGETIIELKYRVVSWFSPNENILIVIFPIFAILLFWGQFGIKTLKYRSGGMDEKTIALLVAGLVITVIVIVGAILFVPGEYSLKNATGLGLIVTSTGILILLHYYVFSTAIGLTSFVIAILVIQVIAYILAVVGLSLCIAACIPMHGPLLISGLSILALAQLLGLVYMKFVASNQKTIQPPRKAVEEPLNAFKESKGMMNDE
T3 sequence (Q08722 19-139 limits assumed): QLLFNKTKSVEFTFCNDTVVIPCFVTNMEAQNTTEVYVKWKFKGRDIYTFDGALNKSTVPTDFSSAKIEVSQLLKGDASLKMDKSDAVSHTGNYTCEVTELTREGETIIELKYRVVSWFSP
T2 sequence (Q08722 19-139 limits assumed): as above

B1: HuD36S4 H2/L1 humanized anti-CD47 antibody (antibody, V domains shown)
VH: EVQLVESGGGLVQPGGSLRLSCAASGFTFSRYWMNWVRQAPGKGLEWVGQIRLKSDNYETHYAESVKGRFTISRDDSKNSLYLQMNSLKTEDTAVYYCIEEGGYYVPFAYWGQGTLVTVSS
VL: DIVMTQSPDSLAVSLGERATINCKSSQSLFKSRTRKNYLAWYQQKPGQPPKLLIYWASIRESGVPDRFSGSGSGTDFTLTISSLQAEDVAVYYCKQSYYLLTFGGGTKVEIK
In the case of B1, the IC50 [1] is reported as 1.9 µg/mL and the IC50 [2] is reported as 0.09 µg/mL.

B2: HuD36S4 H2/L2 humanized anti-CD47 antibody (antibody, V domains shown)
VH: EVQLVESGGGLVQPGGSLRLSCAASGFTFSRYWMNWVRQAPGKGLEWVGQIRLKSDNYETHYAESVKGRFTISRDDSKNSLYLQMNSLKTEDTAVYYCIEEGGYYVPFAYWGQGTLVTVSS
VL: DIVMTQTPLSLPVTPGEPASISCKSSQSLFKSRTRKNYLAWYLQKPGQSPQLLIYWASIRESGVPDRFSGSGSGTDFTLKISRVEAEDVGVYYCKQSYYLLTFGGGTKVEIK
Work on B2 yielded an IC50 [1] of 3.6 µg/mL and an IC50 [2] of 0.11 µg/mL.

B3: HuD36S4 H1/L2 humanized anti-CD47 antibody (antibody, V domains shown)
VH: EVQLVESGGGLVQPGGSLRLSCAASGFTFSRYWMNWVRQAPGKGLEWVGQIRLKSDNYETHYAESVKGRFTISRDDSKNSLYLQMNSLKTEDTAVYYCAREGGYYVPFAYWGQGTLVTVSS
VL: DIVMTQTPLSLPVTPGEPASISCKSSQSLFKSRTRKNYLAWYLQKPGQSPQLLIYWASIRESGVPDRFSGSGSGTDFTLKISRVEAEDVGVYYCKQSYYLLTFGGGTKVEIK
In the case of B3, the IC50 [1] is reported as 13 µg/mL and the IC50 [2] is reported as 2.76 µg/mL.

B4: HuD36S4 H1/L1 humanized anti-CD47 antibody (antibody, V domains shown)
VH: EVQLVESGGGLVQPGGSLRLSCAASGFTFSRYWMNWVRQAPGKGLEWVGQIRLKSDNYETHYAESVKGRFTISRDDSKNSLYLQMNSLKTEDTAVYYCAREGGYYVPFAYWGQGTLVTVSS
VL: DIVMTQSPDSLAVSLGERATINCKSSQSLFKSRTRKNYLAWYQQKPGQPPKLLIYWASIRESGVPDRFSGSGSGTDFTLTISSLQAEDVAVYYCKQSYYLLTFGGGTKVEIK
For B4, the IC50 [1] was 7.3 µg/mL and the IC50 [2] was 2.3 µg/mL.

B5: HuD36S4 H3/L2 humanized anti-CD47 antibody (antibody, V domains shown)
VH: EVQLVESGGGLVQPGGSLRLSCAASGFTFSRYWMNWVRQAPGKGLEWVAQIRLKSDNYETHYAESVKGRFTISRDDSKSSLYLQMNSLKTEDTAVYYCIEEGGYYVPFAYWGQGTLVTVSS
VL: DIVMTQTPLSLPVTPGEPASISCKSSQSLFKSRTRKNYLAWYLQKPGQSPQLLIYWASIRESGVPDRFSGSGSGTDFTLKISRVEAEDVGVYYCKQSYYLLTFGGGTKVEIK
Work on B5 yielded an IC50 [1] of 2.5 µg/mL and an IC50 [2] of 0.1 µg/mL.

B6: HuD36S4 H3/L1 humanized anti-CD47 antibody (antibody, V domains shown)
VH: EVQLVESGGGLVQPGGSLRLSCAASGFTFSRYWMNWVRQAPGKGLEWVAQIRLKSDNYETHYAESVKGRFTISRDDSKSSLYLQMNSLKTEDTAVYYCIEEGGYYVPFAYWGQGTLVTVSS
VL: DIVMTQSPDSLAVSLGERATINCKSSQSLFKSRTRKNYLAWYQQKPGQPPKLLIYWASIRESGVPDRFSGSGSGTDFTLTISSLQAEDVAVYYCKQSYYLLTFGGGTKVEIK
In the case of B6, the IC50 [1] is reported as 4.4 µg/mL and the IC50 [2] is reported as 0.17 µg/mL.

B7: D8S1 mouse/human chimeric anti-human CD47 antibody (antibody, V domains shown)
VH: EVQLQQSVAELVRPGASVKLSCTVSGFNIKNTYIYWVKQRPEQGLEWIGRIDPANGNTKDAPKFQGKATMTADTSSNTAYLQLSSLTSEDTAIYYCARGYGSGFAYWGQGTLVTVSA
VL: DIQMTQTTSSLSASLGDRVTISCRASQDISNHLNWYQQKPDGIVKLLIYYTSRLHSGVPSRFSGSGSGTDYSLTISNLEQEDIATYFCQQGSTLPFTFGSGTKLEIK
notes: also called chimeric D8S1
Work on B7 yielded a Kd [3] of 0.295 nM, a koff [3] of 4.77e-05 s⁻¹ and a kon [3] of 161000 M⁻¹ s⁻¹. The Kd [4] was 3.28 nM, the koff [4] was 0.00049 s⁻¹ and the kon [4] was 150000 M⁻¹ s⁻¹. For the same binder, the IC50 [5] was 19.4 µg/mL, the Kd [6] was 0.295 nM and the Kd [7] was 3.28 nM.

B8: D96S1 mouse/human chimeric anti-human CD47 antibody (antibody, V domains shown)
VH: EVQLQQSGAELVKPGASVKLSCTASGFNIKDTYIHWVKQRPEQGLEWIGRIDPANGNIKSDPKFQGKATVTADTSSNTAYLQLSSLTSEDTAVYYCARSYGSSFASWGQGTLVTVSP
VL: DIQMTQTTSSLSASLGDRVTISCRASQDISNHLNWYQQKPDGAVKLLIYYTSRLHSGVPSRFSGSGSGTDYSLTISNLEQEDIATYFCQQGSTFPYTFGGGTKLEIK
notes: also called chimeric D96S1
In the case of B8, the koff [3] is reported as 1.45e-05 s⁻¹, the kon [3] is reported as 257000 M⁻¹ s⁻¹ and the Kd [4] is reported as 3.13 nM. For the same binder, the koff [4] was 0.000253 s⁻¹, the kon [4] was 80900 M⁻¹ s⁻¹ and the IC50 [5] was 11.3 µg/mL. For the same binder, the Kd [6] was 0.562 nM and the Kd [7] was 3.13 nM.

B9: D41S2 mouse/human chimeric anti-human CD47 antibody (antibody, V domains shown)
VH: EVQLQQSVAELVRPGASVKLSCTPSGFNIKNTYIYWVRQRPEQGLEWIGRIDPANGNTKDAPKFQGKATMTADTSSNTAYLQLSSLTSEDTAIYYCARGYGSGFAYWGQGTLVTVSA
VL: DIQMTQTTSSLSASLGDRVTISCRASQDISNHLNWYQQKPDGTVKLLIYYTSRLHSGVPSRFSGSGSGTDYSLTISNLEQEDIATYFCQQGSTLPFTFGSGTKLEIK
notes: also called chimeric D41S2
For B9, the Kd [3] was 0.228 nM, the koff [3] was 3.34e-05 s⁻¹ and the kon [3] was 147000 M⁻¹ s⁻¹. It also gave a Kd [4] of 5.2 nM, a koff [4] of 0.000756 s⁻¹ and a kon [4] of 145000 M⁻¹ s⁻¹. For the same binder, the IC50 [5] was 11.6 µg/mL, the Kd [6] was 0.228 nM and the Kd [7] was 5.2 nM.

B10: D28S1 mouse/human chimeric anti-human CD47 antibody (antibody, V domains shown)
VH: EVQLVESGGDLVKPGGSLKLSCAASGFTFTSYGMSWVRQTPDKRLEWVATINTGGSYTYYPDSVKGRFTISRDNAKNTLYLQMSSLKSEDTAMYYCARHTIKSLMDYWGQGTSVTVSS
VL: ETTVTQSPASLSMAIGEKVTIRCITSTDIDDDMNWYQQKPGEPPKLLISEGNTLRPGVPSRFSSSGYGTDFVFIIENMFSEDVADYYCLQSDNLPYTFGSGTKLEIK
notes: also called chimeric D28S1; D28S1VH/VL
Binder B10 has a Kd [3] of 1.38 nM, a koff [3] of 0.000413 s⁻¹ and a kon [3] of 299000 M⁻¹ s⁻¹. For the same binder, the IC50 [5] was 12.3 µg/mL and the Kd [6] was 1.38 nM.

B11: D36S4 mouse/human chimeric anti-human CD47 antibody (antibody, V domains shown)
VH: EVKLEESGGGLVQPGGSMKLSCVASGFTFSRYWMNWVRQSPDKGLEWVAQIRLKSDNYETHYAESVKGRFTISRDDSKSSVYLQMNNLRAEDTGIYYCIEEGGYYVPFAYWGQGTLVTVSA
VL: DIVVSQSPSSLAVSAGEKVTMSCKSSQSLFKSRTRKNYLAWYQQRPGQSPKLLIYWASIRESGVPDRFTGSGSGTEFTLTISSVQAEDLAVYYCKQSYYLLTFGAGTKLELK
notes: also called chimeric D36S4 antibody; D36S4 H/L
In the case of B11, the Kd [3] is reported as 0.0194 nM, the koff [3] is reported as 1.18e-05 s⁻¹ and the kon [3] is reported as 605000 M⁻¹ s⁻¹. The Kd [4] was 0.702 nM, the koff [4] was 0.000236 s⁻¹ and the kon [4] was 337000 M⁻¹ s⁻¹. For the same binder, the IC50 [5] was 5.1 µg/mL, the IC50 [1] was 1.6 µg/mL and the Kd [6] was 0.0194 nM. It also gave a Kd [7] of 0.702 nM and an IC50 [2] of 0.07 µg/mL.

B12: D125S3 mouse/human chimeric anti-human CD47 antibody (antibody, V domains shown)
VH: EVQLVESGGDLVKPGGSLNLSCAASGFTFSDYGMSWVRQTPDMRLEWVATISKYGTYTSYPDSVKGRFTISRSNAKNTLYLQMSSLKSADTALYYCARRFFGNYNYWYFDVWGAGTTVTVSS
VL: DIVLTQSPASLAVSLGQRATFSCRASESVDEFGISYIHWYKKSPGQPPKLLIYRASTLESGISARFSGSGSGTDFTLTINPVETDDVATYYCQQSNQDPLTFGAGTKLELK
notes: also called chimeric D125S3
B12 showed a Kd [3] of 0.346 nM, a koff [3] of 7.72e-05 s⁻¹ and a kon [3] of 223000 M⁻¹ s⁻¹. It also gave a Kd [4] of 3.62 nM, a koff [4] of 0.000511 s⁻¹ and a kon [4] of 163000 M⁻¹ s⁻¹. The IC50 [5] was 15.4 µg/mL, the Kd [6] was 0.346 nM and the Kd [7] was 3.62 nM.
